Assay results from US20220306762A1 (CRYSTAL BIOSCIENCE, published 2022).

T1: His-tagged mouse CD38 (ACRO Biosystems CD8-M5223) (mouse, UniProt P56528 45-304)
T1 construct: bought protein; used for ELISA coating and as SPR analyte; also called Murine; not shown: His tag
T1 sequence (looked up): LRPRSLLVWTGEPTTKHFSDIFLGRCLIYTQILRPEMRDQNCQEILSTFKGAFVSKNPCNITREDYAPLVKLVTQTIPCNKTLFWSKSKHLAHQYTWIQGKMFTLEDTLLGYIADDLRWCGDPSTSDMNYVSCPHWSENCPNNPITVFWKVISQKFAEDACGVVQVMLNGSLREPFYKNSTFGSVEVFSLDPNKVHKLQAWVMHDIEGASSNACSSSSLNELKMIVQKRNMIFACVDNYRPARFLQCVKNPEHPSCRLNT


Columns and labels:
[1] = target: T2, His-tagged cynomolgus monkey CD38 (ACRO Biosystems, CD8-05223 [sic]) (cynomolgus monkey, UniProt Q5VAN0 43-301); assay: SPR (second run), His-tagged CD38
T2 construct: bought protein; used for ELISA coating and as SPR analyte; not shown: His tag

[2] = target: T3, His-tagged human CD38 (ACRO Biosystems CD8-H5224) (human, UniProt P28907 43-300); assay: SPR (second run), His-tagged CD38
T3 construct: bought protein; used for ELISA coating and as SPR analyte; not shown: His tag

[3] = target: T1, His-tagged mouse CD38 (ACRO Biosystems …); assay: SPR (second run), His-tagged CD38
[4] = target: T2, His-tagged cynomolgus monkey CD38 (ACRO …); assay: SPR, IgG
[5] = target: T3, His-tagged human CD38 (ACRO Biosystems …); assay: SPR, IgG

| Binder | Kd [1] | Kd [2] | Kd [3] | Kd [4] | Kd [5] |
| --- | --- | --- | --- | --- | --- |
| 40596p1.F6 (scFv, V domains shown) VH: EVQLLESGGGLVQPGGSLRLSCAASGFDFSKNAMSWVRQAPGKGLEYVAGSGWSGSFIFYADSVKGRFTVSRDNSENTLYLQMSSLRAEDTAVYYCAKNPGFGEMDVWGQGTTVTVSS VL: EIVLTQSPGSLFLSPGERATLTCRASQTIGSNLAWYQQKFGQAPRLLIYGASTRAADIPDRFSGSGSGTEFTLTISSLQSEDFAVYYCQQYNSWPPLTFGGGTKVEIK | 281 nM | 80.4 nM | 27.2 nM |  |  |
| 40596p1.E4 (scFv, V domains shown) VH: EVQLLESGGGLVQPGGSLRLSCAASGFDFSGSAMSWVRQAPGKGLEYVAGLGWSGSFIYYADSVKGRSTISRDNSKNTLYLQLNSLRAEDTAVYYCARNPGFGEMDVWGQGTTVTVSS VL: EIVLTQSPGSLSLSPGERATLSCRASQTVGSNLAWYQQKPGQAPRLLIYGASTRATDIPDRFSGSGSGTEFTLTISSLQSEDFAVYYCQQYNSWPPLTFGGGTKVEIK | 147 nM | 26.4 nM | 930 nM |  |  |
| 40596p1.A5 (scFv, V domains shown) VH: EVQLLESGGGLVQPGGSLRLSCAASGFDFSNNAMSWVRQAPGKGLEYVAGSGWSGSFIFYADSVKGRFTVSRDNSENTLYLQMNSLRAEDTAVYYCAKNPGFGEMDVWGQGTTVTVSS VL: EIVLTQSPGSLSLSPGERATLRCRASQSIGSNLAWYQQKPGQAPSLLIYGASTRAADIPDRFSGSGSGTEFTLTITSLQSEDFAVYYCQQYNSWPPLTFGGGTKVEIK | 203 nM | 56.9 nM | 23.7 nM |  |  |
| 40596p1.D2 (scFv, V domains shown) VH: EVQLLESGGGLVQPGGSLRLSCAASGFDFSKNAMSWVRQAPGKGLEYVAGSGWSGSFIFYADSVKGRSTVSRDNSENTLYLQMSSLRAEDTAVYYCAKNPGFGEMDVWGQGTTVTVSS VL: ELVLTQSPGSLFLSPGERATLTCRASQTIGSNLAWYQQKFGQAPRLLIYGASTRAADIPDRFSGSGSGTEFTLTISSLQSEDFAVYYCQQYNSWPPLTFGGGTKVEIK | 172 nM | 54.7 nM | 45.2 nM |  |  |
| 40769p2.2.H8 IgG (antibody, V domains shown, IgG) VH: EVQLLESGGGLVQSGGSLRLSCAASGFNFNSHDMNWVRQAPGKGLEWVSSISADRGRTYYADSVKGRFTIFRDDSKKILYLQMNSLRAEDTAVYYCTKYYNMDVWGQGTTVTVSS VL: not shown |  |  |  | 148 nM | 65.7 nM |
| 40617p1.2.B4 (scFv, V domains shown) VH: EVQLLESGGGFVQPGGSLRLSCAASGFTFTNYVMNWVRQAPGKGLEWVSSISISGGRYTWYADSVKGRFTISRDNSRNTLYLQMNSLRAEDTAIYYCAREMNTYSFPMDVWGQGTTVTVSS VL: EIVLTQSPGTLSLSPGERATLNCRASQNVRSDLAWYQQKPGQAPRLLIYDASNRATGIPDRFSGSGSGTDFSLTISRLEPEDFAVYYCQQYYDWPPYTFGGGTKVEIK | 149 nM | 36.1 nM | 3.33 nM |  |  |
| 40769p2.2.A9 IgG (antibody, V domains shown, IgG) VH: EVQLLESGGGLVQPGGSLRLSCTASGITFSRFNMFWVRQAPGKGLEFVASIRDDGSWTYYADSVKGQFTISRDNSKNTLYLQMNSLRAEDTAVYYCAKDYNSKDFIYHYVMDVWGQGTTVTVSS VL: QSVLTQPPSASGTPGQRVTISCSGRNSNIGNNVVNWYQQLPGTAPKLLIYRNQERPSGVPDRFSGSKSGTSASLAISGLQSEDEADYYCSTWDDSLNGWVFGGGTKLTVL |  |  |  | 259 nM | 11.3 nM |
| 40617p1.2.A1 (scFv, V domains shown) VH: EVQLLESGGGLVQPGGSLRLSCAASGFTFSSYWMTWVRQAPGKGLEWVSAISSYGGQYTYYADSVKGRFTISRDNSKDTLYLHMDSLRAEDTAVYYCAKDWDDGMDVWGQGTTVTVSS VL: EIVMTQSPAVLSVSPGERATLSCRASQSVNIKLAWYQQKPGQAPRLLIYGASTRAAGIPDRFSGSGSGTDFTLTISSLQSDDFAVYYCQQYYDLPPYSFGGGTKVEIK | 102 nM | 75.3 nM | 141 nM |  |  |
